Laboratory results: IntAct's records for PubMed 21596426

How the values were obtained:
h4_human H4C16 = h4_human H4C16 (UniProt P62805)
h32_human H3C13 = h32_human H3C13 (UniProt Q71DI3)

Row | Substance | effect of a mutation on the interaction (h4_human H4C16) | effect of a mutation on the interaction (h32_human H3C13)
1 | Nucleosome-remodeling factor subunit BPTF (Homo sapiens) (from UniProt Q12830-4) F2870A | disrupting interaction | 
2 | Nucleosome-remodeling factor subunit BPTF (Homo sapiens) (from UniProt Q12830-4) W2748E |  | disrupting interaction
